Experimental data: PMC7144924 (Nucleic Acids Research, 2020)

Target: T1, GST-tagged R289A mutant Rrp9 (S. cerevisiae, UniProt Q06506 1-573, R289A)
T1 sequence (looked up): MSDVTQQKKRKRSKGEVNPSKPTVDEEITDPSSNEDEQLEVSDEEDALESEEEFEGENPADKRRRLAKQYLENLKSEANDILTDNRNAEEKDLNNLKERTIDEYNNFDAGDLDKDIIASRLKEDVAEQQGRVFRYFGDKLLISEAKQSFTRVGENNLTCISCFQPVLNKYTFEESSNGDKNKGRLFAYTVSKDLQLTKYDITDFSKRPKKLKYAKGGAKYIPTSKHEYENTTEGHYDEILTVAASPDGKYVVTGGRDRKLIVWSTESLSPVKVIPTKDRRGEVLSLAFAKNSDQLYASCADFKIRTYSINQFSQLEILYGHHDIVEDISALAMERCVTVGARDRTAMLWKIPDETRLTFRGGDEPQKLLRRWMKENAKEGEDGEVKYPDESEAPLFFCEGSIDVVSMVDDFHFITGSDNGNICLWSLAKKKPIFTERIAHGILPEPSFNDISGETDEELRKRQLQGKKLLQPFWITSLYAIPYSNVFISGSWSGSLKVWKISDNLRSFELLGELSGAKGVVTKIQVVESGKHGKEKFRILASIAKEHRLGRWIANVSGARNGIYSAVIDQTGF
Experiment: pull-down

B1: [35S]-methionine-labeled Rrp36, in vitro translated (natural protein, S. cerevisiae, UniProt Q12481 1-300, looked up)
chain: MSYYFKNLKPDLNSDVEEDDGNLLESIMANKSKREIDEQESSDDELKTLSFGSLKKAETVIDEEDFKDTKPVHKKPITTTYREESFDEDEDSEDQSDEDAGFFEEDSEDETHHGQKVPKKKSKHAPVEQSSKKRVPRVRNIPGLEIPRNKRSNLYQDIRFDKSTGKALDSSIIRKRYQFLDEYREKEIDELQKLLQERKFLSKIDQGEREEMEQRLKSMKSRLQSMKNKDLEREILKEYENDMNKNNNTRYHLKKSEKRKVVQKWKFDHMKAKQREKVMERKRKKRLGKEFKQFEFHNRR
modifications: [35S]-methionine-labeled
B1 was tested, and the “reduction of recovery relative to WT Rrp9” value was 20%.
